In patent US20130287807A1, “COMPOUNDS FOR TREATING SYMPTOMS ASSOCIATED WITH PARKINSON'S DISEASE” (priority 2008, published 2013):
One block for each molecule: values may come before it.

Assays:
[1] = test system: monoclonal antibody MV-001; test: In vitro binding assay (ELISA), BSA-coupled peptides, parental antibody MV-001; set-up: species or system C57/B16 mice; conditions: Table 1C; peptide-BSA on plate, compared to original epitope
Description: Peptides derived from Phage Display as well as variants thereof were coupled to BSA and bound to ELISA plates (1 μM; as indicated in the respective figures) and subsequently incubated with the monoclonal antibody that was used for the screening procedure to analyse binding capacity of identified peptides.
Legend to Table 1C: the binding capacity is coded by the following binding code: 1:X describes the dilution factor of the parental AB

[2] = test system: monoclonal antibody MV-001; test: In vitro inhibition assay (ELISA), MV-001 binding to original epitope; set-up: species or system C57/B16 mice; conditions: Table 2C; OD at 10 ug peptide compared to original peptide
Description: Different amounts of peptides (concentrations ranging from 10 μg to 0.08 μg; serial dilutions; for MV-002: concentrations ranging from 5 μg to 0.03 μg; serial dilutions), derived from Phage Display were incubated with the monoclonal antibody that was used for the screening procedure. Peptides diminishing subsequent binding of the antibody to the original epitope coated on ELISA plates were considered as inhibiting in this assay.
Legend to Table 2C: the inhibition capacity is coded by the following code: Weak inhibition means more peptide is required to lower AB binding than with the original epitope; strong inhibition means similar peptide amounts are required for mimotope and original epitope for lowering AB binding. Mimotopes are compared to the original peptide as standard. OD at 10 ug peptide used in the assay is used to calculate the competition capacity compared to original peptide.

[3] = molecular target: monoclonal antibody MV-001; test: ELISA on peptide-BSA; code 2 = medium binding, OD halfmax 1:4000-20000
[4] = molecular target: monoclonal antibody MV-001; test: inhibition ELISA, competitor coated original epitope p4371; code 1 = weaker than original epitope
[5] = molecular target: DAEFRH-peptide-specific monoclonal antibody (Example 1); test: inhibition ELISA, competitor plate-bound DAEFRH-C-BSA
[6] = molecular target: monoclonal antibody MV-001; test: ELISA on peptide-BSA; code 3 = strong binding, OD halfmax 1:>20000

Binding Capacity [1]: 3 (strong binding :>20000)
Molecule: DGLLFKHC [p4741]
Inhibition Capacity [2]: 1 (Weaker than original epitope (OD of 10 ug peptide below 3 times of original peptide))

Binding Capacity [1]: 3 (strong binding :>20000)
Molecule: EELRHSVC [p4746]
Inhibition Capacity [2]: 1 (Weaker than original epitope (OD of 10 ug peptide below 3 times of original peptide))

Binding Capacity [1]: 2 (medium binding :4000-20000)
Molecule: EEFKYSC [p4393]
Inhibition Capacity [2]: 1 (Weaker than original epitope (OD of 10 ug peptide below 3 times of original peptide))

Binding Capacity [1]: 2 (medium binding :4000-20000)
Molecule: QFKHDLC [p4391]
Inhibition Capacity [2]: 1 (Weaker than original epitope (OD of 10 ug peptide below 3 times of original peptide))

Binding Capacity [1]: 2 (medium binding :4000-20000)
Molecule: SHFRHGC [p4389]
Inhibition Capacity [2]: 1 (Weaker than original epitope (OD of 10 ug peptide below 3 times of original peptide))

Binding Capacity [1]: 2 (medium binding :4000-20000)
Molecule: SAFRHHC [p4387]
Inhibition Capacity [2]: 1 (Weaker than original epitope (OD of 10 ug peptide below 3 times of original peptide))

Binding Capacity [1]: 3 (strong binding :>20000)
Molecule: HEFRHC [p4803]
Inhibition Capacity [2]: 2 (strong inhibition (as original epitope; OD of 10 ug peptide below 2 times of original peptide))

Binding Capacity [1]: 3 (strong binding :>20000)
Molecule: SEFKHC [p4801]
Inhibition Capacity [2]: 1 (Weaker than original epitope (OD of 10 ug peptide below 3 times of original peptide))

Binding Capacity [1]: 2 (medium binding :4000-20000)
Molecule: LPFRHGC [p4388]
Inhibition Capacity [2]: 1 (Weaker than original epitope (OD of 10 ug peptide below 3 times of original peptide))

Binding Capacity [1]: 3 (strong binding :>20000)
Molecule: CHEFRH [p4802]
Inhibition Capacity [2]: 2 (strong inhibition (as original epitope; OD of 10 ug peptide below 2 times of original peptide))

Binding Capacity [1]: 3 (strong binding :>20000)
Molecule: CSEFKH [p4800]
Inhibition Capacity [2]: 2 (strong inhibition (as original epitope; OD of 10 ug peptide below 2 times of original peptide))

Binding Capacity [1]: 2 (medium binding :4000-20000)
Molecule: TPFRHTC [p4384]
Inhibition Capacity [2]: 1 (Weaker than original epitope (OD of 10 ug peptide below 3 times of original peptide))

Binding Capacity [1]: 1 (weak binding :<4000)
Molecule: NWFPHPC [p4392]
Inhibition Capacity [2]: 1 (Weaker than original epitope (OD of 10 ug peptide below 3 times of original peptide))

OD halfmax 1:X (dilution factor of the parental antibody at half-maximal OD) (dilutionfactor(1:x)) [3]: 4000 to 20000 | OD at 10 ug peptide relative to OD of original peptide (inhibition ELISA) [4]: 2 to 3 fold
B1: p4387 (peptide)
peptide: SAFRHHC

OD halfmax 1:X (dilution factor of the parental antibody at half-maximal OD) (dilutionfactor(1:x)) [6]: > 20000 | OD at 10 ug peptide relative to OD of original peptide (inhibition ELISA) [4]: 2 to 3 fold
B3: p4386 (peptide)
peptide: LMFRHNC

OD halfmax 1:X (dilution factor of the parental antibody at half-maximal OD) (dilutionfactor(1:x)) [6]: > 20000 | OD at 10 ug peptide relative to OD of original peptide (inhibition ELISA) [4]: 2 to 3 fold
B6: p4725 (peptide)
peptide: THTDFRHC

OD halfmax 1:X (dilution factor of the parental antibody at half-maximal OD) (dilutionfactor(1:x)) [6]: > 20000 | OD at 10 ug peptide relative to OD of original peptide (inhibition ELISA) [4]: 2 to 3 fold
B7: p4741 (peptide)
peptide: DGLLFKHC

OD halfmax 1:X (dilution factor of the parental antibody at half-maximal OD) (dilutionfactor(1:x)) [6]: > 20000 | OD at 10 ug peptide relative to OD of original peptide (inhibition ELISA) [4]: 2 to 3 fold
B9: p4707 (peptide)
peptide: SPNQFRHC

OD halfmax 1:X (dilution factor of the parental antibody at half-maximal OD) (dilutionfactor(1:x)) [6]: > 20000 | OD at 10 ug peptide relative to OD of original peptide (inhibition ELISA) [4]: 2 to 3 fold
B10: p4390 (peptide)
peptide: ILFRHGC

OD halfmax 1:X (dilution factor of the parental antibody at half-maximal OD) (dilutionfactor(1:x)) [3]: 4000 to 20000 | OD at 10 ug peptide relative to OD of original peptide (inhibition ELISA) [4]: 2 to 3 fold
B11: p4385 (peptide)
peptide: SQFRHYC

OD halfmax 1:X (dilution factor of the parental antibody at half-maximal OD) (dilutionfactor(1:x)) [6]: > 20000 | OD at 10 ug peptide relative to OD of original peptide (inhibition ELISA) [4]: 2 to 3 fold
B18: p4738 (peptide)
peptide: QSEFKHWC

OD halfmax 1:X (dilution factor of the parental antibody at half-maximal OD) (dilutionfactor(1:x)) [6]: > 20000 | OD at 10 ug peptide relative to OD of original peptide (inhibition ELISA) [4]: 2 to 3 fold
B21: p4801 (peptide)
peptide: SEFKHC

OD halfmax 1:X (dilution factor of the parental antibody at half-maximal OD) (dilutionfactor(1:x)) [6]: > 20000 | OD at 10 ug peptide relative to OD of original peptide (inhibition ELISA) [4]: 2 to 3 fold
B23: p4740 (peptide)
peptide: ADHDFRHC

OD halfmax 1:X (dilution factor of the parental antibody at half-maximal OD) (dilutionfactor(1:x)) [6]: > 20000 | OD at 10 ug peptide relative to OD of original peptide (inhibition ELISA) [4]: 2 to 3 fold
B26: p4730 (peptide)
peptide: DEHPFRHC

OD halfmax 1:X (dilution factor of the parental antibody at half-maximal OD) (dilutionfactor(1:x)) [6]: > 20000 | OD at 10 ug peptide relative to OD of original peptide (inhibition ELISA) [4]: 2 to 3 fold
B32: p4746 (peptide)
peptide: EELRHSVC

More lines, now with the values behind:

Molecule: TSFRHGC [p4382]
Binding Capacity [1]: 2 (medium binding :4000-20000) | Inhibition Capacity [2]: 1 (Weaker than original epitope (OD of 10 ug peptide below 3 times of original peptide))

Molecule: QDFRHYC [p4380]
Binding Capacity [1]: 2 (medium binding :4000-20000) | Inhibition Capacity [2]: 1 (Weaker than original epitope (OD of 10 ug peptide below 3 times of original peptide))

B2: Peptide 4035 (peptide)
peptide: GKEFRT
IC50 [5]: < 0.5 µg/mL

B4: p4384 (peptide)
peptide: TPFRHTC
OD halfmax 1:X (dilution factor of the parental antibody at half-maximal OD) (dilutionfactor(1:x)) [3]: 4000 to 20000 | OD at 10 ug peptide relative to OD of original peptide (inhibition ELISA) [4]: 2 to 3 fold

B5: Peptide 1237 (peptide)
peptide: DRELKIC
IC50 [5]: > 5 µg/mL

B8: Peptide 1236 (peptide)
peptide: DKELKIC
IC50 [5]: > 5 µg/mL

B12: Peptide 4031 (peptide)
peptide: DAELRY
IC50 [5]: < 0.5 µg/mL

B13: Peptide 4002 (peptide)
peptide: SWEFRTC
IC50 [5]: < 0.4 µg/mL

B14: Peptide 4024 (peptide)
peptide: SSEFRVS
IC50 [5]: < 0.5 µg/mL

B15: p4382 (peptide)
peptide: TSFRHGC
OD halfmax 1:X (dilution factor of the parental antibody at half-maximal OD) (dilutionfactor(1:x)) [3]: 4000 to 20000 | OD at 10 ug peptide relative to OD of original peptide (inhibition ELISA) [4]: 2 to 3 fold

B16: Peptide 4020 (peptide)
peptide: SWELRQA
IC50 [5]: > 0.5 µg/mL

B17: Peptide 4023 (peptide)
peptide: SQEFRTP
IC50 [5]: < 0.5 µg/mL

B19: p4380 (peptide)
peptide: QDFRHYC
OD halfmax 1:X (dilution factor of the parental antibody at half-maximal OD) (dilutionfactor(1:x)) [3]: 4000 to 20000 | OD at 10 ug peptide relative to OD of original peptide (inhibition ELISA) [4]: 2 to 3 fold

B20: p4383 (peptide)
peptide: TSVFRHC
OD halfmax 1:X (dilution factor of the parental antibody at half-maximal OD) (dilutionfactor(1:x)) [6]: > 20000 | OD at 10 ug peptide relative to OD of original peptide (inhibition ELISA) [4]: 2 to 3 fold

B22: Peptide 1238 (peptide)
peptide: DKELRC
IC50 [5]: < 0.5 µg/mL

B24: Peptide 4032 (peptide)
peptide: DWELRQ
IC50 [5]: < 0.5 µg/mL

B25: Peptide 1241 (peptide)
peptide: DWEFRDAC
IC50 [5]: < 0.5 µg/mL

B27: Peptide 4034 (peptide)
peptide: GPEFRW
IC50 [5]: < 0.5 µg/mL

B28: p4381 (peptide)
peptide: SEFKHGC
OD halfmax 1:X (dilution factor of the parental antibody at half-maximal OD) (dilutionfactor(1:x)) [6]: > 20000 | OD at 10 ug peptide relative to OD of original peptide (inhibition ELISA) [4]: 2 to 3 fold

B29: Peptide 3009 (peptide)
peptide: SFEFRGC
IC50 [5]: < 5 µg/mL

B30: Peptide 1239 (peptide)
peptide: EYEFRGC
IC50 [5]: > 0.5 µg/mL

B31: Peptide 4025 (peptide)
peptide: DWEFRD
IC50 [5]: < 0.5 µg/mL

B33: Peptide 1235 (peptide)
peptide: DRELRIC
IC50 [5]: < 0.5 µg/mL

B34: Peptide 4033 (peptide)
peptide: SLEFRF
IC50 [5]: < 0.5 µg/mL

B35: Peptide 4022 (peptide)
peptide: SYEFRHH
IC50 [5]: < 0.5 µg/mL

B36: Peptide 4021 (peptide)
peptide: SVEFRYH
IC50 [5]: < 0.5 µg/mL

B37: Peptide 4036 (peptide)
peptide: AYEFRH
IC50 [5]: > 0.5 µg/mL

B38: Peptide 3008 (peptide)
peptide: ELEFRGC
IC50 [5]: < 5 µg/mL
